Measured values reported in paper PMC11503520.
Values joined by “and” are separate entries in the source; they are usually repeats but may differ in a detail not shown here. Identical values can stand only once.

Key:
[1] = molecular target: AAV8 viral protein 3 (VP3) (adeno-associated virus serotype 8); assay: native MS; orbitrap-based CDMS of full particles (FP); mass of the genome subtracted from the mass distribution of FP, then VP stoichiometry of the capsid of FP estimated as for EP
[2] = molecular target: AAV8 viral protein 3 (VP3) (adeno-associated virus serotype 8); assay: CE-SDS of purified capsids; full particles (FP) separated by DG-UC, denatured with SDS and mercaptoethanol, 60 °C 3 min; VP components detected at 214 nm; VP3 is the sum of VP3 and VP3 clip
[3] = molecular target: AAV8 viral protein 3 (VP3) (adeno-associated virus serotype 8); assay: native MS; orbitrap-based CDMS of empty particles (EP) of AAV8-H4C1, AAV8-FIXp and AAV8-FIXp hFIX mini-intron after buffer exchange into 200 mM ammonium acetate; average VP stoichiometry estimated from the mass distribution by assigning integer stoichiometries (0-60 for each VP) and weighted averaging
[4] = molecular target: AAV8 viral protein 3 (VP3) (adeno-associated virus serotype 8); assay: CE-SDS of purified capsids; empty particles (EP) separated by DG-UC, denatured with SDS and mercaptoethanol, 60 °C 3 min; VP components detected at 214 nm; VP3 is the sum of VP3 and VP3 clip
[5] = molecular target: AAV8 viral protein 3 (VP3) (adeno-associated virus serotype 8); assay: CE-SDS of purified capsids; AAV8-H4C1, not separated into EP and FP by DG-UC: ratio of the mixture; VP3 is the sum of VP3 and VP3 clip

Q: “AAV8 viral protein 2 (VP2) (natural protein)” was tested. Which VP stoichiometry VP1: VP2: VP3 (copies of VP2 in the capsid) [1] did it give?
A: Its VP stoichiometry VP1: VP2: VP3 (copies of VP2 in the capsid) is 6.6 and 12.3 and 7.1.

Q: What about the VP stoichiometry VP1: VP2: VP3 (copies of VP2 in the capsid) [2] of the same substance?
A: The VP stoichiometry VP1: VP2: VP3 (copies of VP2 in the capsid) was 9.3 and 7.5.

Q: And the VP stoichiometry VP1: VP2: VP3 (copies of VP2 in the capsid) [3]?
A: Its VP stoichiometry VP1: VP2: VP3 (copies of VP2 in the capsid) is 9.4.

Q: What about the VP stoichiometry VP1: VP2: VP3 (copies of VP2 in the capsid) [4] of the same substance?
A: The VP stoichiometry VP1: VP2: VP3 (copies of VP2 in the capsid) was 9.7 and 9.6.

Q: And the VP stoichiometry VP1: VP2: VP3 (copies of VP2 in the capsid) [5]?
A: Its VP stoichiometry VP1: VP2: VP3 (copies of VP2 in the capsid) is 7.8.

Q: Which VP stoichiometry VP1: VP2: VP3 (copies of VP1 in the capsid) [1] does the source give for “AAV8 viral protein 1 (VP1) (natural protein)” here?
A: Its VP stoichiometry VP1: VP2: VP3 (copies of VP1 in the capsid) is 1.7 and 3.4 and 1.8.

Q: What about the VP stoichiometry VP1: VP2: VP3 (copies of VP1 in the capsid) [2] of the same substance?
A: Its VP stoichiometry VP1: VP2: VP3 (copies of VP1 in the capsid) is 4.6 and 4.7.

Q: And the VP stoichiometry VP1: VP2: VP3 (copies of VP1 in the capsid) [3]?
A: Its VP stoichiometry VP1: VP2: VP3 (copies of VP1 in the capsid) is 2.5 and 2.6.

Q: What about the VP stoichiometry VP1: VP2: VP3 (copies of VP1 in the capsid) [4] of the same substance?
A: Its VP stoichiometry VP1: VP2: VP3 (copies of VP1 in the capsid) is 4.9 and 5.

Q: And the VP stoichiometry VP1: VP2: VP3 (copies of VP1 in the capsid) [5]?
A: The VP stoichiometry VP1: VP2: VP3 (copies of VP1 in the capsid) was 5.1.

Q: Which results are given for “AAV8 viral protein 3 (VP3) (natural protein)”?
A: VP stoichiometry VP1: VP2: VP3 (copies of VP3 in the capsid) [1]: 51.7 and 44.2 and 51; VP stoichiometry VP1: VP2: VP3 (copies of VP3 in the capsid) [2]: 46.1 and 47.8; VP stoichiometry VP1: VP2: VP3 (copies of VP3 in the capsid) [3]: 48; VP stoichiometry VP1: VP2: VP3 (copies of VP3 in the capsid) [4]: 45.4; VP stoichiometry VP1: VP2: VP3 (copies of VP3 in the capsid) [5]: 47
